Laboratory results: patent US20260258397A1, “REAGENTS AND SYSTEMS FOR […]” (priority 2023, published 2026)
Substitutions are numbered along the chain they refer to.

Biological target: ΔN-HAB1 (HAB1 Δ1-178), recombinant (Arabidopsis) (UniProt Q9CAJ0)
Assay: cell-based or functional assay

Chain of ΔN-HAB1 (HAB1 Δ1-178), recombinant (Arabidopsis) (Q9CAJ0 179-511, stated change not applied): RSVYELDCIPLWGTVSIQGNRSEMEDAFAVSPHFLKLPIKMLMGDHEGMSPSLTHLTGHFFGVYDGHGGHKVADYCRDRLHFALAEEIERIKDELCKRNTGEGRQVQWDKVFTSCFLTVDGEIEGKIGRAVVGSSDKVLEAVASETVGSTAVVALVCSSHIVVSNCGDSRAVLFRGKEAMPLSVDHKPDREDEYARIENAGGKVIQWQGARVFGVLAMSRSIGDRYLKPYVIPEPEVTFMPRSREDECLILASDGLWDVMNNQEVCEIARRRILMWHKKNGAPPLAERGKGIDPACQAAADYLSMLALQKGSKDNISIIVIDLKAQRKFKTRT

B1: 6xHis-PYR1^WIN, recombinant (designed binder, not shown: small tags and cut ends)
chain: MPSELTPEERSELKNSIAEFHTYQLDPGSCSSLHAQRIHAPPELVWSIVRRFDKPQTYQHFIKSCSVEQNFEMRVGCTRDVIVISGLPANTSTERLDILDDERRVTGFSIIGGEHRLTNYKSVTTVHRFEKENRIWTVVLESYVVDMPEGNSEDDTRMAIDTVVKLNLQKLATVAEAMARNSGDGSGSQVT
EC50 for HAB1 inhibition (in vitro phosphatase activity, fluorogenic substrate; the ligand WIN 55,212-2 is titrated, 50 nM receptor, 25 nM ΔN-HAB1): 72 nM

B2: PYR1^DIAZI, recombinant (designed binder)
chain: B1 chain with E8G, Q59K, V81Y, L87M, F108Y, M158V, A159G, I160V
EC50 of receptor-mediated inhibition of HAB1 phosphatase activity in vitro (ligand diazinon titrated): 36 nM

B3: 6xHis-PYR1^4F, recombinant (designed binder, not shown: small tags and cut ends)
chain: B1 chain with Q59K, H115Q, Y120G, A159V, I160G
EC50 for HAB1 inhibition (in vitro phosphatase activity, fluorogenic substrate; the ligand 4F-MDMB-BUTINACA is titrated, 25 nM receptor, 25 nM ΔN-HAB1): 102 nM

B4: PYR1^PIRI, recombinant (designed binder)
chain: B1 chain with Q59R, S92M, N119S, S122Q, E130G, A159T, I160T, V174A
EC50 of receptor-mediated inhibition of HAB1 phosphatase activity in vitro (ligand pirimiphos-methyl titrated): 58 nM
